# Tested on: Cabin 1-14
# Sequence (chain, as listed by the source): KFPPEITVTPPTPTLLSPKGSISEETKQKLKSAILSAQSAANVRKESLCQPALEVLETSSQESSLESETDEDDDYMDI
substance,measurement,value
"calcineurin (endogenous, Jurkat T cells)",dephosphorylation of ΔNF-AT1 (Western blot gel shift) upon ionomycin with or without PMA,Overexpression of Cabin 1-14 inhibited the dephosphorylation of ΔNF-AT 1 upon treatment with ionomycin in the presence or absence of PMA
